Test results from paper PMC4594993.

Target: extracellular domain of basigin (CD147-ED)
Test: SPR; ProteOn XPR36, CD147-ED immobilised on an activated GLC chip; CD98-ED injected at 0, 3, 1.5, 0.75, 0.375, 0.1875 uM, association 180 s, dissociation 600 s; 1:1 binding model

Substance: extracellular domain of CD98 (CD98-ED, residues 111-530 of human 4F2hc) (domain or fragment)
- Kd: 187 nM
